T1: hiR2-FL-Q580A-T7 (human, UniProt Q6PJF5 1-856)
T1 sequence: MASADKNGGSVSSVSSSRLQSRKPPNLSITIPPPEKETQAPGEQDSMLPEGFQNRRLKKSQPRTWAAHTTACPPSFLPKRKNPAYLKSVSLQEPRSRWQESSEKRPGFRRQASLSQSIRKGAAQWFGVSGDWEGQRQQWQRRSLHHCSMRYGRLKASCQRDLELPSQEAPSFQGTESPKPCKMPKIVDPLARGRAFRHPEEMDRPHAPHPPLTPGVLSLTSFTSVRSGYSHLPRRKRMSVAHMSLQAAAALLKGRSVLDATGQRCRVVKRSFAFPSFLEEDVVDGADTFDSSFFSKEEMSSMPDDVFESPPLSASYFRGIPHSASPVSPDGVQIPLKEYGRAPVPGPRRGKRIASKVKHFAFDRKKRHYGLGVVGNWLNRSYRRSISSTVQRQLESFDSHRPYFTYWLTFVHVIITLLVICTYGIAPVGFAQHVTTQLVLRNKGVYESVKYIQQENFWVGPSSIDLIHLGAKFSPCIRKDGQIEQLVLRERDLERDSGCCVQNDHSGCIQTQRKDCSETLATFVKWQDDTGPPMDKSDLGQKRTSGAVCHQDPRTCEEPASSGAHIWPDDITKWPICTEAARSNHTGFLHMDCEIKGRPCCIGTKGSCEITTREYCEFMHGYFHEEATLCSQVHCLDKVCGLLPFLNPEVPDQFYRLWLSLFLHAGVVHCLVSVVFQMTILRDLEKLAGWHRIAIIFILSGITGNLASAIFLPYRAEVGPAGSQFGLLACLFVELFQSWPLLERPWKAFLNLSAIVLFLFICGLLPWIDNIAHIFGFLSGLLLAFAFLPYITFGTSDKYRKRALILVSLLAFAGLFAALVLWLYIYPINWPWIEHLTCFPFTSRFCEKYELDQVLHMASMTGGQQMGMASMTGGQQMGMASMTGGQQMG

T2: hiR2-FL-I566A-T7 (human, UniProt Q6PJF5 1-856)
T2 sequence: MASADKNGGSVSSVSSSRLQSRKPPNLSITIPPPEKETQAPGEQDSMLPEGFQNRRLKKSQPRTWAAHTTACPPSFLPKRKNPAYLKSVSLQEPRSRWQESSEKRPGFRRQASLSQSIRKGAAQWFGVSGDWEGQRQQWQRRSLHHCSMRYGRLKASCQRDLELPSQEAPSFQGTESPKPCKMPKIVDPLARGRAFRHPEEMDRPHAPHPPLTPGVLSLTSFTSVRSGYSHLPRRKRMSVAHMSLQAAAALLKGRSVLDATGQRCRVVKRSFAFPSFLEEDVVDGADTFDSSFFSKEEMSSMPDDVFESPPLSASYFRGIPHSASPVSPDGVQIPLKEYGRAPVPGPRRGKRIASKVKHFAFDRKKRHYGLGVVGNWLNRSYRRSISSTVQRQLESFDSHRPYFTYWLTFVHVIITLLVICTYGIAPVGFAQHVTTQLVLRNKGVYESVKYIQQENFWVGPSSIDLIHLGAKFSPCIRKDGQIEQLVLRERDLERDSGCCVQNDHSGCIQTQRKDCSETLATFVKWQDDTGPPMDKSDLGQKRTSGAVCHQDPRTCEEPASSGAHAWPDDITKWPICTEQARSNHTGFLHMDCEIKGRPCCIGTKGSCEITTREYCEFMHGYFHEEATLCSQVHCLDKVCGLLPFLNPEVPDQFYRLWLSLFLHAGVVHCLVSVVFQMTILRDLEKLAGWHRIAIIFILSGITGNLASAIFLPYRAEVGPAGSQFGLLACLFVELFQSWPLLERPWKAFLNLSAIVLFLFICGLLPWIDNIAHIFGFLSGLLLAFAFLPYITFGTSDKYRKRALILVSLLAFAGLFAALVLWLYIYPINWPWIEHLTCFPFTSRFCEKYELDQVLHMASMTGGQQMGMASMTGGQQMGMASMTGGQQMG


What was measured:
hiR2-FL-Q580A-T7 = molecular target: T1, hiR2-FL-Q580A-T7; experiment: FACS on MEF-DKO cells expressing the variant, 3 µg/ml antibody
In short: (§1)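 Read-out is PE fluorescence by flow cytometry after two-step staining: antibody at 3 μg/ml for 1 hour on ice, then PE-labelled goat anti-mouse IgG F(ab′)2 (1:100) for 1 hour on ice.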

hiR2-FL-I566A-T7 = molecular target: T2, hiR2-FL-I566A-T7; experiment: as above
In short: as §1

Row | Binder | loss of binding vs wild type (hiR2-FL-Q580A-T7) [%] | loss of binding vs wild type (hiR2-FL-I566A-T7) [%]
1 | antibody 3 (antibody, V domains shown, mouse IgG, kappa light chain; also called clone #3; purified antibody 3) VH: QVTLKESGPGILQPSQTLSLTCSFSGFSLTTFAMGIGWVRQPSGKGLEWLAHIWWDGEKYNNPVLKSRLTISKDTSKNQVFLRIANVDTPDTATYYCARISSIYYIIDNWGQGTSVTVSS VL: DIVLTQSPATLSVTPGHSVSLSCRASQSISNNLHWYQKKSHESPRLLIKYVSQSISGIPSRFSGSGSGTDFTLSINSVETEDFGMYFCQQSYNWPLTFGAGTKLELK | ≥ 30 | 
2 | antibody 34 (antibody, V domains shown, mouse IgG, kappa light chain; also called clone #34; purified antibody 34) VH: QVTLKESGPGILQPSQTLSLTCSFSGFSLSTFSLGVGWIRQSSGKGLEWLAHIWWDDEKYYNPALKSRLTISKDTSKNQVFLKIANVDAADTATYYCARAYYSKSYYALDYWGQGTSVTVSS VL: DIQMTQSPSSLSASLGERVSLTCRASQEISGYLSWLQQKPDGTIKRLIYAASTLDSGVPKRFSGSRSGSDYSLAISSLESEDFADYYCLQYANFPFTFGSGTKLEIK |  | ≥ 30

Reference: patent US20240287172A1 (SCIRHOM, published 2024)
